Values of other authors as cited in paper PMC6474356.
Where two headings read alike, the source gives them in different places.

Key:
[1] = molecular target: calmodulin (Homo sapiens) (UniProt P0DP23)
[2] = molecular target: calmodulin (Homo sapiens) (UniProt P0DP23); remark: listed apart in the source

Question: With eEF-2K (from UniProt O00418) as the substance, how does the Kd [1] read?
Answer: 17 nM

Question: Which Kd [2] does the source give for “eEF-2K CBD peptide CBD (from UniProt O00418)” here?
Answer: 245 nM
